According to US20120177639A1 (Sanofi, published 2012):

B1: humanized anti-peptide Aβ antibody VH1VL1 (LP09027) (antibody, human IgG4 S228P, kappa, V domains shown)
VH: EVQLQQSGPEVVKPGVSVKISCKGSGYTFTDYAMHWVKQSPGKSLEWIGVISTKYGKTNYNPSFQGQATMTVDKSSSTAYMELASLKASDSAIYYCARGDDGYSWGQGTSVTVSS
VL: EIVMTQTPLSLPVSLGDRASISCRSGQSLVHSNGNTYLHWYLQKPGQSPKLLIYTVSNRFSGVPDRFSGSGSGSDFTLTISRVEAEDLGVYFCSQNTFVPWTFGGGTKLEIKR
notes: Humanized from murine antibody 13C3; Made in FreeStyle 293-F cells; hetero-tetramer of 150 kDa; also called 13C3-VH1VL1; Antibody 1 VH1VL1

Experiments:
[1] = biological target: B1; assay: competitive ELISA, antibody 0.02 µg/ml pre-incubated with the peptide, free antibody read on coated Aβ1-42
Protocol: The antibody/antigen mixture is then deposited in each well and the microtitration plate is incubated for 1 h at room temperature. The free, uncomplexed antibody is determined according to the same ELISA protocol as described previously.

fibrils of IAPP = biological target: T1, fibrils of IAPP (UniProt P10997 34-70); assay: ELISA on coated fibrils (IAPP at 0.5 µg/ml)
T1 construct: Insoluble fibrils formed by 72 h at 37 °C; also called Islet Amyloid Polypeptide
T1 peptide (looked up): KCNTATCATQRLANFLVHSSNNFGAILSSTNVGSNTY
Protocol: 50 μl of fibrils of Aβ1-42 at 1 μg/ml and IAPP at 0.5 μg/ml are deposited in each well of a microtitration plate. The ELISA protocol is applied using serial dilutions of the humanized antibody starting from 10 μg/ml.

| Binder | binding result [1] | binding result (fibrils of IAPP) |
| --- | --- | --- |
| DAEFRHDSGYEVHHQK (peptide, UniProt P05067 672-687, looked up, range 1-16) [peptide Aβ1-16] | no binding |  |
| GSNKGAIIGLM (peptide, UniProt P05067 696-706, looked up, range 25-35) [peptide Aβ25-35] | no binding |  |
| B1 |  | no binding |
